Consider two substances from patent publication US20190375823A1.

The target in experiment [1] is HER2 and HER3 on cells (MALME-3M or SKOV cells). Kind of experiment: FACS on SKOV-3 cells, FITC-labeled anti-HSA detection.
Experiment [2] shares this target. Kind of experiment: FACS on MALME-3M cells (2012529), FITC-labeled anti-HSA antibodies.
For experiment [3] the target is unchanged. As to the kind of experiment: FACS on SKOV cells (20120803), FITC-labeled anti-HSA antibodies; apparent Kd.
For experiment [4] the target is unchanged. As to the kind of experiment: FACS on MALME-3M cells (20120529), FITC-labeled anti-HSA antibodies; apparent Kd.
Experiment [5] has the same target. As to the kind of experiment: FACS on MALME-3M cells, FITC-labeled anti-HSA antibodies; upper end of the range.
For experiment [6] the target is unchanged. As to the kind of experiment: FACS; column head prints Bmax (MALME 20120603). Also on record: unit not given here.
Experiment [7] shares this target. Kind of experiment: FACS on MALME-3M cells, FITC-labeled anti-HSA antibodies; lower end of the range.
Experiment [8] has as its target CD19 on Raji B cells (UniProt P15391). As to the kind of experiment: cell-based or functional assay.
Experiment [9] has as its target CD3 on Jurkat T cells (UniProt P07766). As to the kind of experiment: cell-based or functional assay.

pKd: −log10 of the molar value.

CD19 on Raji B cells, sequence (P15391 20-556 limits assumed): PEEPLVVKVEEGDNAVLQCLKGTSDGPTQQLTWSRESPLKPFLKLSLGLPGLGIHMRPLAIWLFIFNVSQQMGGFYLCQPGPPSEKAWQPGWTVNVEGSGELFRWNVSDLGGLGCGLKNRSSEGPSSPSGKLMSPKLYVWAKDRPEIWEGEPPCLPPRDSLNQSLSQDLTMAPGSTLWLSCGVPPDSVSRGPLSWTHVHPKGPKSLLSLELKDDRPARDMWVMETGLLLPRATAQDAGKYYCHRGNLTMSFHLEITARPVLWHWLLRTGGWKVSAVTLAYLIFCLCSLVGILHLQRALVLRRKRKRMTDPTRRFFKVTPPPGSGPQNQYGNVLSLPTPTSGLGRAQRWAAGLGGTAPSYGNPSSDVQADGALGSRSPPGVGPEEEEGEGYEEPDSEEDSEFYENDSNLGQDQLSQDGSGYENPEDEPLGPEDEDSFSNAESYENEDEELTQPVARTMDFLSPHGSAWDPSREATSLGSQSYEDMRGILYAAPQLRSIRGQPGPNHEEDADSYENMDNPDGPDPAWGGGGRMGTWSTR
CD3 on Jurkat T cells, sequence (P07766 23-207): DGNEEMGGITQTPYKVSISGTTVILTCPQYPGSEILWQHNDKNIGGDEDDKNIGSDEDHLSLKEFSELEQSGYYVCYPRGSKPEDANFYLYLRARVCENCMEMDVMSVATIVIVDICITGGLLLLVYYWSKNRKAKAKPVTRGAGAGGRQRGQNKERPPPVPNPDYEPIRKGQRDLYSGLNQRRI

For orientation: EC50 (read off the curve) means the concentration giving half of the maximal effect. In general, pKd refers to the negative decadic logarithm of the Kd, by convention in mol/L. In the case of “v1087: benchmark control variant of MM-111 (anti-Her3 H3 scFv - AAS - albumin - AAAL - anti-Her2 B1D2 scFv) (bispecific antibody)”, the concentration giving a half-maximal response (EC50 (read off the curve)) in [1] is 10 nM. Also, the Bmax is 1470 in experiment [2] and 6580 in experiment [6]. The pKd in experiment [3] was 7.97; in [4], 4.92; in experiment [5], 7.26; in [7], 8.30.
Consider “v891: anti-CD3xCD19 BiTE control (bispecific antibody)”, for which the Whole cell bridging by FACS (Jurkat-violet + RAJI-FarRed): % of events labeled both violet and Far-red; needs binding of both CD3 and CD19 (% of total cells) in [8] and in experiment [9] was 21 each time.
